Source: article doi:10.1101/2020.07.08.194100

Key:
[1] = target: GST-RhoA^V14 (constitutively active RhoA) (UniProt P61586); test: pull-down
[2] = target: GST-RhoA^N19 (inactive RhoA) (UniProt P61586); test: pull-down

A fold change of binding after PMA against vehicle control [1] of 2 fold and a fold change of binding after PMA against vehicle control [2] of 2 fold were found for “HA-tagged wild-type diacylglycerol kinase ζ (HA-DGKζ) (enzyme)” in this work.
